The nature of the series: label from the status in PepcDB records.
Take “MESEGEAQMFADCDQKTVKQTAAKPMSSKKKQDFQALASDRQLAIVFSSMIQVSEAFDYGIGNPEYFVRISMTEEEADIAKENLESIKLENKSLKKQNSEAVALLQKTRNQDMSRIEIQQLTENRAGFFETADSMIKLINQVTPKNAKKTRQQLDQLKKQYTQYSAESIKIMNSIVKKQKADKASFERHLEALLQKQPGQQVRSELYLEHHHHHH”: the protein production result is recorded as “not failed”.

With “MNSLSSLAAVLLMAGRSTRMGQPKALLPLGGMPLCRHAAQTLVEAGYGEVWAVLPPGETGDAVRAALQGLPLRWVTNPQPAQGLLSSFQAAGEALWAESAAPAVVFTLADMPLVRRDTHQALGTVFGAEQPAAIITRYGEVAAPPTLLRRDLLPRLHEFPPSDHGPRTLLRELGRELKKIDRPAAELLDIDTPEAWAQAQQLFAEVTPGAQDGP”, the protein production entry is on record as “failed”.

Turning to “MGFIMEFAENLVLRLMENPEERDRKAREHIYEMHERCKKIKEMWALPIRPYGFWTFERHNAQLRWDPQISQVAGRRDPYDDLLEDNYTPPSSSSSSSD”, the protein production result was “failed”.

As for “PTLYEKIQQANEEAVTRIIQSKPILVGFDKAINVMPDMTETTILHAGPPITYENMCGPMKGAVQGALVFEGLAKDLADADRVARSGAITFSPCHEHDAVGSMAGVTSPNMYVHIIKNETYGNTAFTNLSEQLAKVLRFGANDQSVVDRLIWMRDVLGPLLHDAMTFCPEGIDLRLMLSQALHMGDECHNRNVAGSTLLVQALTPYMVQTDFSREQLKEVFEFLGSSDYFSGPTWMGAAKCALDAGHNVENSTIVTTMCRNGVEFGIRVSGIGGNHWFTGPAQRVIGPMFAGYTQEDAGLDMGDSAITETYGVGGFAMAAAPAIVPLVGGTVAEALNYSKEMLEITTKENPNVTIPVLDFMGIPTGIDVLKVLETGMLPVINTAIAHKEPGIGMIGAGLTNPPANVFNEALKALVATIN”, the protein production entry was “not failed”.

“MKRMSSLEYHFGVKVRFYPSNNQKKMIKQNYDAQRFVYNQYVGAGRLIYHVKKANRIKQLSSGLPFVMQGMSEYENQQALRMIDTQDLISKPKNIRDKYDFLRVEDIDSLAIANAIQNYHKAWRNYHKIGYGIPTFHKKRSSWSYQTNCQYIKQDAAYLDNGTVRFIDAKHVKLPKLGIVRIAGLRKLIKKRLFNRIPIRIGTASIKKTADDQFYLSLQLGSDIAFVKDYAKTQKQIGIDLNLDNFLTDSNGAMVANPRFYRRAKKKLAHAQRILSRRERRAKKEGRSLCESKNYQKQRLAVAKLHDRIRRQRQDFLQVLSTALIKNHDLVVAEELRSKNLLKNHALAQSISDAGWRSFLTMLEYKADLHGKKFVTIDPKFTTQRCHNCGNIMGQNGYKKLTLKDRKWTCPVCGSYHIRDWNASVNILEKSKGIWKNPKIKKRSK”: the protein production entry is reported as “failed”.

“MTNKVKSKRIAAIDWMRGFVMIIMVLDHVSMAYNKEHLSTDSAASYIIGSPLPAFEFFTRWISHICAPVFVFLAGTALAISVERKLSRGFDSKAIDKDILLRGAFIALLDPTITSFFSGKLIFQVLYAIGIAMMCMAFFRRLSSTQLLIIAMAWILGGELVTAQFWFAGGQEQSIIVALLIGKYSSADLSISYALVPWLSVMILGWVFGRYILDYGDGKVTISPANLLFRLGFTALAAFIAIRYFNDYGNMFLLREDNSWQQWLHVSKYPPSASFIMLELGLMAVILALMIKVEQRIGVRPNGVLLVFGQTSMMFYLVHRIFLTGTATYGGLSDFTNLTNTYIISGVLLLLLFPFCIWYRSFKVKHPDSLWLKYL”: the protein production result is given as “failed”.

For “MGNNKNLHGHLFALTANVMWGLMSPIGKSALQEFSAISVTTFRMVGAAAAFWILSIFCKQEHVDHRDMLKIFFASLFALVFNQGIFIFGLSMTSPIDASIVTTTLPIVTMIVAAIYLKEPITNKKVLGIFVGAMGALILIMSSQAASSGNGSLIGDLLCLVAQISFSIYLTVFKGLSQRYSAVTINKWMFIYASMCYIPFSYQDISVIQWTSIPMVAILQVLYVVLGGSFLAYLCIMTAQKLLRPTVVSMYNYMQPIVATIAAILMGIGSFGWEKGIAITLVFLGVYIVTQSKSKADFEKAGKEL”, the protein production entry was “failed”.

For the sequence “MMDSTASRQDLLTAASMRFQNLIQWSGAVLLCALPLGVTLAATGGEPAAVTQVDIAPCLAAAAGDDMDKAKSACADVIDNEKTAKGDLIKALVARGALYARHDQVDRAIADDSRALSLDPTLADVFNARGELWLKKGDKPKAVQDFGAALKLDPNHEKAKANHKAMARELERIGAQMAVAGKPSFNCARAARAVEKAICGNRELADLDREIYGSHLRVIREAQSPAEARKIQREQDDFIARRNSGFGRPGYDLKKAMQDRLQQINGVDGY”, the protein production result is given as “failed”.

For the origin of these results see a protein production outcome set (Wang et al. 2014).
